Laboratory results as given in US20140154255A1 (AbbVie / Abbott, published 2014).

What was measured:
[1] = target: T1, VEGF (R&D systems, Minneapolis, Minn.) (UniProt P15692-4 27-191, limits assumed); assay: BIAcore SPR
Method: (§1) RL was kept low to minimize avidity due to the dimeric nature of VEGF. No capture of the antibody was made on the reference surface to serve as a negative control. Subsequently, VEGF was injected to all flow cells at a flow rate of 50 μL/min for two minutes to monitor association followed by a 25-minute flow of HBS-P running buffer (10 mM HEPES, 150 mM sodium chloride, 0.005% P-20, pH 7.4) to monitor the dissociation phase. At each cycle, VEGF, in 6 different concentrations of VEGF ranging between 0 nM and 512 nM and at four-fold increments, was injected over the surface. […] Binding data were fit to the 1:1 Langmuir model to extract binding constants from the BIAevaluate software. Double referencing was applied in each analysis to eliminate background responses from the reference surface and buffer only control. All the binding kinetics data were analyzed at least three separate determinations.

[2] = target: T1, VEGF (R&D systems, Minneapolis, Minn.); assay: BIAcore SPR, mutant/WT
Method: as §1

[3] = target: T1, VEGF (R&D systems, Minneapolis, Minn.); assay: BIAcore SPR, WT/mutant
Method: as §1

[4] = target: T1, VEGF (R&D systems, Minneapolis, Minn.); assay: BIAcore SPR, improvement over WT
Method: as §1

[5] = target: T2, unlabeled human VEGF (ELISA coat) (human, UniProt P15692-4 27-191, limits assumed); assay: ELISA overnight, EC50 WT/EC50 mutant
T2 sequence (P15692 other isoform, or with tags, fused parts or gaps limits assumed): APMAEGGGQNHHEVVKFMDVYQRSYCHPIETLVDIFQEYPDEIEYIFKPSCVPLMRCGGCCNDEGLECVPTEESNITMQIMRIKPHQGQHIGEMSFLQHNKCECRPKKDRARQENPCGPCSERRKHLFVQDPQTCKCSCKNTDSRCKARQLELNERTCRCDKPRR
Method: (§2) To detect identified variants binding to antigen, ELISA plates (Nunc-Immuno MaxiSorp plates, Nalge Nunc, Rochester, N.Y.) were coated overnight at 4° C. with unlabeled human VEGF at 1 μg/mL in 0.2 M sodium carbonate-bicarbonate buffer (pH 9.4, Pierce, Rockford, Ill.). The plates were then blocked with SuperBlock Blocking Buffer (Pierce, Rockford, Ill.) for 30 min and washed with Washing Buffer (PBS containing 0.1% Tween 20). All the washing steps were performed for three times. […] The plates were washed and 100 μL of goat anti-human kappa HRP-conjugated antibody (Southern Biotech, Birmingham, Ala.) diluted at 1:1000 in ELISA buffer was added to each well. After 30 minutes of incubation, plates were washed and bound antibodies were detected by addition of TMB 1 Component HRP Microwell substrate (BioFx #TMBW-1000-01). The reaction was terminated by addition of 100 μL/well of 650 nM Stop Reagent for TMB Microwell substrate and the absorbance was measured at 650 nm using a VERSAmax microplate reader (Molecular Devices, Sunnyvale, Calif.). Data were fitted using nonlinear regression with the software […]

[6] = target: T3, human VEGF-A residues 27-191 of Accession #AAV38412 (human, UniProt P15692 27-191); assay: BIAcore SPR
T3 construct: range 27-191
T3 sequence (P15692 other isoform, or with tags, fused parts or gaps limits assumed): as above
Method: (§3) The binding kinetics and affinity of the antibodies for VEGF (human VEGF-A residues 27-191 of Accession #AAV38412) was determined by using a BIAcore T200 surface plasmon resonance system (BIAcore, GE Healthcare, Piscataway, N.J.). Coupling running buffer was HBS-EP+ running buffer (10 mM HEPES, 150 mM sodium chloride, 3 mM EDTA 0.05% P-20, pH 7.4); assay running buffer was HBS-EP+ with 300 mM sodium chloride and 0.1 mg/mL BSA (Sigma A7906). Polyclonal goat anti-human Fc (Thermo Scientific prod#31125) was first immobilized to the biosensor surface in 10 mM sodium acetate, pH 4.5 using standard BIAcore amine coupling reagents (N-ethyl-N′-dimethylamino-propylcarbodiimide, EDC; N-hydroxysuccinimide, NHS; and ethanolamine HCl, pH 8.5). For binding kinetics assay a series of cycles were performed, each cycle consisted of 1) mAb capture, 2) Ag or buffer injection, 3) dissociation phase and 4) regeneration. Briefly, anti-VEGF antibodies were captured on parallel surfaces at a low flow rate of 10 μL/min. Capture levels were kept low to minimize avidity due to the dimeric nature of VEGF. No capture of the antibody was made on the reference surface to serve for primary referencing and as a negative control. Subsequently, VEGF or buffer only was injected to all flow cells at a flow rate of 80 μL/min for three minutes to monitor association followed by a 20-minute flow of assay rinning buffer at a flow rate of 80 μL/min to monitor dissociation. […] At the end of each cycle the surface was regenerated with 10 mM glycine, pH 1.5 at a flow rate of 60 μL/min in pulses of 60 and 10 sec. Binding data were fit to the 1:1 Langmuir model with mass transport term included using Biacore T200 Evaluation Software to determine the binding constants.

[7] = target: T2, unlabeled human VEGF (ELISA coat); assay: ELISA 1 hr, EC50 WT/EC50 mutant
Method: as §2

[8] = target: T3, human VEGF-A residues 27-191 of …; assay: BIAcore SPR, KD WT/KD mutant
Method: as §3

T1 sequence (P15692 other isoform, or with tags, fused parts or gaps limits assumed): as above

B1: 83 (antibody, human IgG1, V domains shown)
VH: EVQLVESGGGLVQPGGSLRLSCAASGYTFTFYGMNWVRQAPGKGLEWVGWINTYTGEPTYAADFKRRFTFSLDTSKSTAYLQMNSLRAEDTAVYYCAKYPPYDGGSHWYFDVWGQGTLVTVSS
VL: DIQMTQSPSSLSASVGDRVTITCSASQDISNYLNWYQQKPGKAPKVLIYFTSSLHSGVPSRFSGSGSGTDFTLTISSLQPEDFATYYCQQYSTVPWTFGQGTKVEIKR
Kd [1]: 0.106 nM | koff [1]: 0.000194 s⁻¹ | kon [1]: 1.88e+06 M⁻¹ s⁻¹ | Δkon [2]: 10.4 fold | Δkoff [3]: 1.8 fold | ΔKD [4]: 18.6 fold

B2: 90 (antibody, human IgG1, V domains shown)
VH: EVQLVESGGGLVQPGGSLRLSCAASGYTFTFYGMNWVRQAPGKGLEWVGWINTYTGEPTYAADFKRRFTFSLDTSKSTAYLQMNSLRAEDTAVYYCAKYPDYYGSSHWYFDVWGQGTLVTVSS
VL: DIQMTQSPSSLSASVGDRVTITCSASQDISNYLNWYQQKPGKAPKVLIYFTSSLHSGVPSRFSGSGSGTDFTLTISSLQPEDFATYYCQQYSTVPWTFGQGTKVEIKR
Kd [1]: 0.311 nM | koff [1]: 0.000197 s⁻¹ | kon [1]: 645000 M⁻¹ s⁻¹ | Δkon [2]: 3.6 fold | Δkoff [3]: 1.8 fold | ΔKD [4]: 6.3 fold

B3: T30 R (anti-VEGF IgG) (antibody, V domains shown)
VH: EVQLVESGGGLVQPGGSLRLSCAASGYTFRNYGMNWVRQAPGKGLEWVGWINTYTGEPTYAADFKRRFTFSLDTSKSTAYLQMNSLRAEDTAVYYCAKYPHYYGSSHWYFDVWGQGTLVTVSS
VL: DIQMTQSPSSLSASVGDRVTITCSASQDISNYLNWYQQKPGKAPKVLIYFTSSLHSGVPSRFSGSGSGTDFTLTISSLQPEDFATYYCQQYSTVPWTFGQGTKVEIK
notes: copies: 2 + 2
ELISA o/n binding [5]: 3.2 fold | Kd [6]: 0.644 nM | koff [6]: 6.76e-05 s⁻¹ | kon [6]: 105000 M⁻¹ s⁻¹ | ELISA 1hr binding [7]: 2.9 fold | affinity improvement [8]: 1.3 fold

B4: 89 (antibody, human IgG1, V domains shown)
VH: EVQLVESGGGLVQPGGSLRLSCAASGYTFTFYGMNWVRQAPGKGLEWVGWINTYTGEPTYAADFKRRFTFSLDTSKSTAYLQMNSLRAEDTAVYYCAKYPPYDGSSHWYFDVWGQGTLVTVSS
VL: DIQMTQSPSSLSASVGDRVTITCSASQDISNYLNWYQQKPGKAPKVLIYFTSSLHSGVPSRFSGSGSGTDFTLTISSLQPEDFATYYCQQYSTVPWTFGQGTKVEIKR
Kd [1]: 0.282 nM | koff [1]: 0.000249 s⁻¹ | kon [1]: 904000 M⁻¹ s⁻¹ | Δkon [2]: 5 fold | Δkoff [3]: 1.4 fold | ΔKD [4]: 7 fold

B5: 86 (antibody, human IgG1, V domains shown)
VH: EVQLVESGGGLVQPGGSLRLSCAASGYTFTFYGMNWVRQAPGKGLEWVGWINTYTGEPTYAADFKRRFTFSLDTSKSTAYLQMNSLRAEDTAVYYCAKYPDYEGSSHWYFDVWGQGTLVTVSS
VL: DIQMTQSPSSLSASVGDRVTITCSASQDISNYLNWYQQKPGKAPKVLIYFTSSLHSGVPSRFSGSGSGTDFTLTISSLQPEDFATYYCQQYSTVPWTFGQGTKVEIKR
Kd [1]: 0.179 nM | koff [1]: 0.000238 s⁻¹ | kon [1]: 1.33e+06 M⁻¹ s⁻¹ | Δkon [2]: 7.4 fold | Δkoff [3]: 1.5 fold | ΔKD [4]: 11 fold

B6: T28 Y (anti-VEGF IgG) (antibody, V domains shown)
VH: EVQLVESGGGLVQPGGSLRLSCAASGYYFTNYGMNWVRQAPGKGLEWVGWINTYTGEPTYAADFKRRFTFSLDTSKSTAYLQMNSLRAEDTAVYYCAKYPHYYGSSHWYFDVWGQGTLVTVSS
VL: DIQMTQSPSSLSASVGDRVTITCSASQDISNYLNWYQQKPGKAPKVLIYFTSSLHSGVPSRFSGSGSGTDFTLTISSLQPEDFATYYCQQYSTVPWTFGQGTKVEIK
notes: copies: 2 + 2
ELISA o/n binding [5]: 3.4 fold | Kd [6]: 0.52 nM | koff [6]: 6.32e-05 s⁻¹ | kon [6]: 122000 M⁻¹ s⁻¹ | ELISA 1hr binding [7]: 5.2 fold | affinity improvement [8]: 1 fold

B7: 85 (antibody, human IgG1, V domains shown)
VH: EVQLVESGGGLVQPGGSLRLSCAASGYTFTFYGMNWVRQAPGKGLEWVGWINTYTGEPTYAADFKRRFTFSLDTSKSTAYLQMNSLRAEDTAVYYCAKYPEYEGSSHWYFDVWGQGTLVTVSS
VL: DIQMTQSPSSLSASVGDRVTITCSASQDISNYLNWYQQKPGKAPKVLIYFTSSLHSGVPSRFSGSGSGTDFTLTISSLQPEDFATYYCQQYSTVPWTFGQGTKVEIKR
Kd [1]: 0.14 nM | koff [1]: 0.000175 s⁻¹ | kon [1]: 1.25e+06 M⁻¹ s⁻¹ | Δkon [2]: 6.9 fold | Δkoff [3]: 2 fold | ΔKD [4]: 14.1 fold

B8: 87 (antibody, human IgG1, V domains shown)
VH: EVQLVESGGGLVQPGGSLRLSCAASGYTFTFYGMNWVRQAPGKGLEWVGWINTYTGEPTYAADFKRRFTFSLDTSKSTAYLQMNSLRAEDTAVYYCAKYPEYDGGSHWYFDVWGQGTLVTVSS
VL: DIQMTQSPSSLSASVGDRVTITCSASQDISNYLNWYQQKPGKAPKVLIYFTSSLHSGVPSRFSGSGSGTDFTLTISSLQPEDFATYYCQQYSTVPWTFGQGTKVEIKR
Kd [1]: 0.204 nM | koff [1]: 0.00016 s⁻¹ | kon [1]: 824000 M⁻¹ s⁻¹ | Δkon [2]: 4.6 fold | Δkoff [3]: 2.2 fold | ΔKD [4]: 9.6 fold

B9: 84 (antibody, human IgG1, V domains shown)
VH: EVQLVESGGGLVQPGGSLRLSCAASGYTFTFYGMNWVRQAPGKGLEWVGWINTYTGEPTYAADFKRRFTFSLDTSKSTAYLQMNSLRAEDTAVYYCAKYPPYEGSSHWYFDVWGQGTLVTVSS
VL: DIQMTQSPSSLSASVGDRVTITCSASQDISNYLNWYQQKPGKAPKVLIYFTSSLHSGVPSRFSGSGSGTDFTLTISSLQPEDFATYYCQQYSTVPWTFGQGTKVEIKR
Kd [1]: 0.128 nM | koff [1]: 0.000182 s⁻¹ | kon [1]: 1.6e+06 M⁻¹ s⁻¹ | Δkon [2]: 8.9 fold | Δkoff [3]: 1.9 fold | ΔKD [4]: 15.3 fold

B10: T30 W (anti-VEGF IgG) (antibody, V domains shown)
VH: EVQLVESGGGLVQPGGSLRLSCAASGYTFWNYGMNWVRQAPGKGLEWVGWINTYTGEPTYAADFKRRFTFSLDTSKSTAYLQMNSLRAEDTAVYYCAKYPHYYGSSHWYFDVWGQGTLVTVSS
VL: DIQMTQSPSSLSASVGDRVTITCSASQDISNYLNWYQQKPGKAPKVLIYFTSSLHSGVPSRFSGSGSGTDFTLTISSLQPEDFATYYCQQYSTVPWTFGQGTKVEIK
notes: copies: 2 + 2
ELISA o/n binding [5]: 4.5 fold | Kd [6]: 0.309 nM | koff [6]: 5.74e-05 s⁻¹ | kon [6]: 186000 M⁻¹ s⁻¹ | ELISA 1hr binding [7]: 2.9 fold | affinity improvement [8]: 1.6 fold

B11: T30 N (anti-VEGF IgG) (antibody, V domains shown)
VH: EVQLVESGGGLVQPGGSLRLSCAASGYTFNNYGMNWVRQAPGKGLEWVGWINTYTGEPTYAADFKRRFTFSLDTSKSTAYLQMNSLRAEDTAVYYCAKYPHYYGSSHWYFDVWGQGTLVTVSS
VL: DIQMTQSPSSLSASVGDRVTITCSASQDISNYLNWYQQKPGKAPKVLIYFTSSLHSGVPSRFSGSGSGTDFTLTISSLQPEDFATYYCQQYSTVPWTFGQGTKVEIK
notes: copies: 2 + 2
ELISA o/n binding [5]: 4 fold | Kd [6]: 0.303 nM | koff [6]: 5.14e-05 s⁻¹ | kon [6]: 170000 M⁻¹ s⁻¹ | ELISA 1hr binding [7]: 2.4 fold | affinity improvement [8]: 1.7 fold
